Series [1] deals with the molecule itself. As to the kind of experiment: SDS-PAGE under reducing and non-reducing conditions, Coomassie Blue staining and Western blot (self-association into the heptamer). The text has this: (§1) For Western blot analysis, PRP-based proteins were resolved on 4-12% gradient SDS-PAGE (NuPAGE Bis-Tris 4-12% Mini Gels, Invitrogen) under reducing and non-reducing conditions and transferred to PVDF membrane. After blocking, the membrane was probed with primary antibodies: 1:2000 dil. polyclonal PK9008 rabbit anti-C4BP (a gift from Anna Blom), and 1:4000 dil. 6×His Monoclonal Antibody (Clontech, Mountain View, CA, USA), followed by the addition of 1:2000 dil. polyclonal Goat Anti-Rabbit IgG HRP (P0448, Dako, Agilent, Santa Clara. CA, USA), and 1:2000 dil. polyclonal Goat Anti-Mouse IgG HRP (P0447, Dako, Agilent, Santa Clara, CA, USA), respectively. Detection was performed with enhanced chemiluminescence (ECL) (Pierce, ThermoFischer, Carlsbad, CA, USA) using ChemiDoc Imager (Bio-Rad, Hercules, CA, USA).
(§2) In this regard, and to assess whether the C4BP CCP6 domain alone as a monomer or, conversely, in an heptavalent oligomerized form analogous to its physiological origin, would preserve the anti-inflammatory and immunomodulatory activities ascribed to PRP-HO7 (Olivar et al. (2013) J. Immunol. 190: 2857-2872). PRP6-HO7 and PRP6-NO were produced in HEK293 cells and were purified from its supernatants (FIG. 3). […]

Series [2] concerns the molecule itself. As to the kind of experiment: SDS-PAGE under non-reducing conditions, Coomassie Blue staining and Western blot (self-association).
From the text: as §1, §2

Consider two proteins from patent US20240131059A1 (FUNDACI INSTITUT D INVESTIGACI BIOM DICA DE BELLVITGE …, published 2024).

B1: mature recombinant polypeptide forming PRP6-HO7 (single monomer chain, 14.3 kDa) (other)
chain: HHHHHHLCCPEPKLNNGEITQHRKSRPANHCVYFYGDEISFSCHETSRFSAICQGDGTWSPRTPSCGDETPEGCEQVLTGKRLMQCLPNPEDVKMALEVYKLSLEIEQLELQRDSARQSTLDKEL
notes: Same chain as in m1; also called PRP6-HO7 monomer chain
On to B1, for which, in series [1], the binding result is recorded as “binds”.

B2: PRP6-NO, recombinant polypeptide formed by the CCP6 domain of C4BP(β-) fused at its C-terminus to a mutated C4BP(β-) oligomerization domain unable to … (other)
chain: HHHHHHLCCPEPKLNNGEITQHRKSRPANHCVYFYGDEISFSCHETSRFSAICQGDGTWSPRTPSCGDETPEGAEQVLTGKRLMQALPNPEDVKMALEVYKLSLEIEQLELQ
notes: Produced in Expi293 cells; Monomer of 12.7 kDa
On to B2, for which the binding result in series [2] is given as “no binding”.
